Source: patent US11618906B2, “Hydroxylation techniques” (HYPHA DISCOVERY LTD., priority 2018, dated 2023)
Changes are numbered by the printed parent chain. Names and notes keep the numbering of the source.

B1: aluC09M24: cytochrome P450 aluC09 double mutant T291E, A47I; amino acid sequence SEQ ID NO: 84 (protein, listed as Amycolatopsis lurida)
chain: MTDVEETTATLPLARKCPFSPPPEYERLRRESPVSRVGLPSGQTAWILTRLEDIREMLSSPHFSSDRQSPSFPLMVARQIRREDKPFRPSLIAMDPPEHSRARRDVVGEFTVKRMKALQPRIQQIVDEHLDALLAGPKPADLVQALSLPVPSLVICELLGVPYSDHEFFQSCSSRMLSREVTAEERMTAFEQLENYLDELVTKKEANATEDDLLGRQILKQRETGEADHGELVGLAFLLLIAGHETTANMISLGTVTLLENPDQLAKIKADPGKTLAAIEELLRVFTIAEEATSRFATADVEIGGTLIRAGEGVVGLSNAGNHDPDGFENPDTFDIERGARHHVAFGFGVHQCLGQNLARLELQIVFDTLFRRVPGLRIAVPVDELPFKHDSTIYGLHALPVTW
B2: aluC09M18: cytochrome P450 aluC09 mutant T291Q; amino acid sequence SEQ ID NO: 20 (protein, listed as Amycolatopsis lurida)
chain: B1 chain with I47A, E291Q
B3: aluC09M21: cytochrome P450 aluC09 mutant T291Y; amino acid sequence SEQ ID NO: 32 (protein, listed as Amycolatopsis lurida)
chain: B1 chain with I47A, E291Y
B4: aluC09M30: cytochrome P450 aluC09 double mutant T291E, V315L; amino acid sequence SEQ ID NO: 108 (protein, listed as Amycolatopsis lurida)
chain: B1 chain with I47A, V315L

Key:
Format in all cases: biochemical
[1] = Hydroxylation of diclofenac catalysed by cytochrome P450 aluC09 and mutants (UPLC-PDA-MS); conditions: for 4′,5-dihydroxy-diclofenac 1.38 mins / 4′-hydroxy-diclofenac (1) 1.62 mins / 5-hydroxy-diclofenac (2) 1.58 mins / Diclofenac (Substrate) 1.81 mins: % by UV peak area at 275 nm, 0.125 mg/ml substrate, 27° C., 16-20 hours; for Hydroxylated Ratio hydroxy 1:hydroxy 2: ratio of UV peak areas at 275nm
Protocol: (§1) Lyophilised material of mutants of CYP450aluC09, ferredoxinaluF03 and ferredoxin reductaseSCF15A was made as described in examples 3 and 4 and suspended in water (0.5 mL per vial) and biocatalysis was performed at 27° C. in the following conditions: 50 mM potassium phosphate pH 7.4, 5 mM MgCl2, 0.125 mg/ml substrate compound such as diclofenac (Sigma-Aldrich, UK), Aceclofenac (Tokyo Chemical Industry UK Ltd, UK), Indomethacin (Sigma-Aldrich, UK), Flufenamic acid (Sigma-Aldrich, UK), Napropamide (Sigma-Aldrich, UK), celecoxib (LC Laboratories, USA), valsartan (Tokyo Chemical Industry UK Ltd, UK), ruxolitinib (LC Laboratories, USA), 4-pyrrolidylacetophenone (Sigma-Aldrich, UK), tofacitinib (LC Laboratories, USA), bosentan (CarboSynth Ltd, UK), buparvaquone (MedChemtronica, Sweden), BIRB796 (Stratech Scientific Limited, UK), epothilone B (LC Laboratories, USA), ritonavir (Tokyo Chemical Industry UK Ltd, UK) or tivantinib (MedChemtronica, Sweden), P450AluC09 (concentration as in Table 8), 5 mM G6P, 1 mM NADP, 2 UN/ml G6PDH in a final volume of 100 μL. After 16-20 hours at 200 rpm (5 cm orbital shaker, Kuhner AG, Switzerland), reactions were extracted with an equal volume of acetonitrile, centrifuged to remove precipitated proteins and conversion assessed by UPLC-MS analysis.
(§2) UPLC data was obtained as follows:
(§3) Column: Acquity UPLC BEH Shield RP18 1.7 μm 2.1 mm i.d. 50 mm length
(§4) Solvents: H2O, B: Acetonitrile, both with 0.1% Formic acid
(§5) Detector: Waters Acquity UPLC PDA (UV-Vis detection) and Waters Acquity UPLC QDA (MS)
Illustrative results for the hydroxylation of diclofenac by CYP450aluC09 and selected T291x mutants are summarised below in Table 3 with representative chromatograms resented in FIG. 3a-c; retention times: diclofenac 1.85-1.88 minutes, 5-hydroxydiclofenac 1.60-1.63 minutes, 4′-hydroxydiclofenac 1.65-1.68 minutes, 4′,5-dihydroxydiclofenac 1.40-1.42 minutes. The chromatographic retention times and mass spectra coincided with those of authentic samples.

[2] = Metabolism of BIRB796 by P450 aluC09 and mutants; conditions: percent of substrate being converted; 0.125 mg/ml, 27° C., 16-20 hours; [CYP] per enzyme as in Table 8
Protocol: as §1
(§6) However, of particular note when considering P450 concentration are the results for mutants M12, M20 and M34, as well as the deleterious impact on the range of substrate utility in mutants M39 and M40.

[3] = Metabolism of tivantinib by P450 aluC09 and mutants; conditions: percent of substrate being converted; 0.125 mg/ml, 27° C., 16-20 hours; [CYP] per enzyme as in Table 8
Protocol: as §1, §6

[4] = Metabolism of bosentan by P450 aluC09 and mutants; conditions: percent of substrate being converted; 0.125 mg/ml, 27° C., 16-20 hours; [CYP] per enzyme as in Table 8
Protocol: as §1, §6

[5] = Metabolism of ruxolitinib by P450 aluC09 and mutants; conditions: percent of substrate being converted; 0.125 mg/ml, 27° C., 16-20 hours; [CYP] per enzyme as in Table 8
Protocol: as §1, §6

[6] = Metabolism of ritonavir by P450 aluC09 and mutants; conditions: percent of substrate being converted; 0.125 mg/ml, 27° C., 16-20 hours; [CYP] per enzyme as in Table 8
Protocol: as §1, §6

[7] = O-demethylation of indomethacin catalysed by cytochrome P450 aluC09 and mutants; conditions: % by UV peak area at 275 nm; 0.125 mg/ml substrate, 27° C., 16-20 hours
Protocol: as §1, §2, §3, §4, §5

[8] = Metabolism of celecoxib by P450 aluC09 and mutants; conditions: percent of substrate being converted; 0.125 mg/ml, 27° C., 16-20 hours; [CYP] per enzyme as in Table 8
Protocol: as §1, §6

[9] = Hydroxylation of flufenamic acid catalysed by cytochrome P450 aluC09 and mutants; conditions: for Flufenamic Acid (Substrate) 1.93 mins / Hydroxy-Flufenamic Acid (1) 1.69 mins / Hydroxy-Flufenamic Acid (2) 1.65 mins: % by UV peak area at 275 nm, 0.125 mg/ml substrate, 27° C., 16-20 hours; for Hydroxylated Ratio 1:2: flufenamic acid, ratio of UV peak areas at 275 nm
Protocol: as §1, §2, §3, §4, §5
Flufenamic acid elutes at 1.93 minutes, hydroxy-flufenamic acid 1 elutes at 1.68 minutes and hydroxy-flufenamic acid 2 elutes at 1.65 minutes.

[10] = Metabolism of 4-pyrrolidylacetophenone by P450 aluC09 and mutants; conditions: percent of substrate being converted; 0.125 mg/ml, 27° C., 16-20 hours; [CYP] per enzyme as in Table 8
Protocol: as §1, §6

[11] = Metabolism of valsartan by P450 aluC09 and mutants; conditions: percent of substrate being converted; 0.125 mg/ml, 27° C., 16-20 hours; [CYP] per enzyme as in Table 8
Protocol: as §1, §6

[12] = Hydroxylation of aceclofenac catalysed by cytochrome P450 aluC09 and mutants; conditions: for Aceclofenac (Substrate) (1.80 mins) / Dihydroxy-Aceclofenac (1.42 mins) / Hydroxy-Aceclofenac (1) (1.64 min) / Hydroxy-Aceclofenac (2) (1.60 min): % by UV peak area at 275 nm, 0.125 mg/ml substrate, 27° C., 16-20 hours; for Hydroxylated Ratio 2:1: aceclofenac, ratio of UV peak areas at 275 nm
Protocol: as §1, §2, §3, §4, §5
Chromatograms are provided in FIGS. 5a-c; aceclofenac elutes at 1.80 minutes, hydroxy-aceclofenac acid 1 elutes at 1.64 minutes, hydroxy-aceclofenac acid 2 elutes at 1.60 minutes and dihydroxy-aceclofenac elutes at 1.42 minutes.

[13] = Metabolism of tofacitinib by P450 aluC09 and mutants; conditions: percent of substrate being converted; 0.125 mg/ml, 27° C., 16-20 hours; [CYP] per enzyme as in Table 8
Protocol: as §1, §6

[14] = Metabolism of epothilone B by P450 aluC09 and mutants; conditions: percent of substrate being converted; 0.125 mg/ml, 27° C., 16-20 hours; [CYP] per enzyme as in Table 8
Protocol: as §1, §6

[15] = Hydroxylation / de-N-ethylation of napropamide catalysed by cytochrome P450 aluC09 and mutants
Protocol: as §1, §2, §3, §4, §5
Napropamide elutes at 1.76 minutes, unidentified metabolite (−2 Da) elutes at 1.90 minutes, desethyl-napropamide elutes at 1.62 minutes, hydroxy-napropamide 1 elutes at 1.53 minutes and hydroxy-napropamide 2 elutes at 1.52 minutes and the desethyl-hydroxy-napropamide product elutes at 1.41 minutes.

[16] = % by UV peak area at 275 nm, 0.125 mg/ml substrate, 27° C., 16-20 hours

Molecule	4′,5-dihydroxy-diclofenac 1.38 mins [1]	4′-hydroxy-diclofenac (1) 1.62 mins [1]	5-hydroxy-diclofenac (2) 1.58 mins [1]	Diclofenac (Substrate) 1.81 mins [1]	Hydroxylated Ratio hydroxy 1:hydroxy 2 ([1]; diclofenac)	% conversions (avg) BIRB796 [2]	% conversions (avg) Tivantinib [3]	% conversions (avg) Bosentan [4]	% conversions (avg) Ruxolitinib [5]	% conversions (avg) Ritonavir [6]	Indomethacin (1.74 mins) [7]	O-demethyl-Indomethacin (1.52 mins) [7]	% conversions (avg) Celecoxib [8]	Flufenamic Acid (Substrate) 1.93 mins [9]	Hydroxy-Flufenamic Acid (1) 1.69 mins [9]	Hydroxy-Flufenamic Acid (2) 1.65 mins [9]	% conversions (avg) 4-pyrrolidylacetophenone [10]	% conversions (avg) Valsartan [11]	% conversions (avg) Tofacitinib [13]	% conversions (avg) Epothilone B [14]	further results
B1	1.8%	34.2%	8.0%	57.0%	4.3	18.9%	6.8%	100%	37.7%	30.4%	94.2%	5.8%	3.6%	89.2%	7.7%	3.1%	7.6%	21.2%	0%	52.3%	regioselectivity of hydroxylation (product ratio 4′-hydroxydiclofenac : 5-hydroxydiclofenac) ([1]; diclofenac): over four-fold; Hydroxylated Ratio 1:2 [9]: 2.5; Aceclofenac (Substrate) (1.80 mins) [12]: 63.4%; Dihydroxy-Aceclofenac (1.42 mins) [12]: 5.0%; Hydroxy-Aceclofenac (1) (1.64 min) [12]: 14.3%; Hydroxy-Aceclofenac (2) (1.60 min) [12]: 17.4%; Hydroxylated Ratio 2:1 [12]: 1.2
B2	1.9%	45.5%	12.3%	41.6%	3.7	24.3%	59.7%	100%	38.5%	53.3%	83.6%	16.4%	3.7%	86.1%	9.1%	4.8%	14.1%	27.1%	2.2%	24.8%	Hydroxylated Ratio 1:2 [9]: 1.9; Aceclofenac (Substrate) (1.80 mins) [12]: 10.2%; Dihydroxy-Aceclofenac (1.42 mins) [12]: 49.1%; Hydroxy-Aceclofenac (1) (1.64 min) [12]: 5.9%; Hydroxy-Aceclofenac (2) (1.60 min) [12]: 34.9%; Hydroxylated Ratio 2:1 [12]: 5.9; Desethyl Napropamide (1.62 min) [15, 16]: 49.5%; Desethyl-hydroxy-Napropamide (1.41 min) [15, 16]: 4.1%; Hydroxy-Napropamide (1) (1.53 min) [15, 16]: 1.4%; Hydroxy-Napropamide (2), (1.52 min) [15, 16]: 2.5%; M-2Da (unidentified) (1.89 min) [15, 16]: 5.7%; Napropamide (substrate) [15, 16]: 38.3%; Hydroxylated Ratio 2:1 ([15]; napropamide, ratio of UV peak areas): 1.8
B3							29.6%	59%	19%	28.2%			1%				15.8%	19%	2.7%	33.8%	
B4	3.6%	43.4%	13.0%	41.6%	3.3	18%	2.7%	80.4%	37.5%	20.9%	90.1%	9.9%	3.9%	93.8%	3.7%	2.4%	16.6%	20%	0%	32.2%	Hydroxylated Ratio 1:2 [9]: 1.5; Aceclofenac (Substrate) (1.80 mins) [12]: 24.1%; Dihydroxy-Aceclofenac (1.42 mins) [12]: 18.4%; Hydroxy-Aceclofenac (1) (1.64 min) [12]: 15.0%; Hydroxy-Aceclofenac (2) (1.60 min) [12]: 42.5%; Hydroxylated Ratio 2:1 [12]: 2.8
